Results taken from the Human Domainome abundance scans (Beltran et al. 2025).

B1: Friend leukemia integration 1 transcription factor, residues 116 to 197; numbered along this chain, Q01543 (parent)
chain: NMTTNERRVIVPADPTLWTQEHVRQWLEWAIKEYSLMEIDTSFFQNMDGKELCKMNKEDFLRATTLYNTEVLLSHLSYLRES
B2: Transcription factor SOX-4, residues 60 to 127; numbered along this chain, Q06945 (parent)
chain: KRPMNAFMVWSQIERRKIMEQSPDMHNAEISKRLGKRWKLLKDSDKIPFIREAERLRLKHMADYPDYK

Variants of: B1
Test: abundance fitness (aPCA) (normalised: wild type 0, dead -1); higher = more abundant; growth selection in yeast, the domain comes from the species named
Settings: Homo sapiens

Abundance fitness: each site, then its substitutions
L61: Q 0.009, W -0.04, S -0.105, F -0.307, K -0.335, C -0.396, V -0.13, T -0.025, E -0.16, H -0.36, I -0.268, A -0.13, P -1.07, G -0.236, M -0.123, D -0.449, N -0.371
N68: F -1.02, T -0.146, C -0.292, G -0.125, E -0.022, L -0.859, A -0.233, R -0.547, Y -0.797, Q -0.167, D 0.156, V -0.376, K -0.898, W -0.911, S -0.083
S82: P -0.125, F -0.112
L76: F -0.555, T -0.916, V -0.432, G -0.28, P -0.7, S -0.553, M -0.218, N -0.799, I -0.391, Q -0.879, R -0.723, H -0.841, E -0.794
H75: Y -0.201
E70: I -0.726, H -0.001, A -0.598, N -0.124, M -0.239, R -0.335, T -0.213, K -0.167, Q -0.078, W -0.944, D 0.092, S -0.107, L -0.507, C -0.448, P -0.859, V -0.363
L79: F -0.657
L73: E -0.343, C -0.057, K -0.199, W 0.039, I -0.21, G -0.27, F -0.1, R -0.144, M -0.061, Y -0.281, H -0.173, T -0.044, V -0.085, P -0.854, N -0.631, A -0.133
D59: C -0.046, P -0.882, K -0.052, A -0.035, V -0.211, Y -0.045, G -0.058, T -0.189, R -0.327, I -0.607, F -0.144, W -0.106, H -0.177, E -0.184, Q -0.087, S -0.126, M -0.17
E81: D -0.092
M55: V -0.331, Y -0.273, W -0.04
F60: P -0.921, M -0.277, V -0.433, Y 0.152, C -0.545, L -0.116, G -1.1, K -0.801, A -0.75, S -0.881, R -1, W -0.114, T -0.918, Q -0.938
E58: W -0.153, N 0.048, C -0.11, T -0.053, L -0.117, M -0.19, Y 0.015, R -0.032, F -0.228, A 0.119, P 0.01, G 0.028, V -0.17, K -0.162
R80: S 0.103
T65: K -0.47, A -0.424, P -0.085, N -0.042, R -0.372, F -1.09, G -0.058, H -0.283, L -0.615, S -0.011, W -1.03, Q -0.235, V -0.966, C -0.028, I -0.908, D -0.162
T69: F -0.799, L -0.561, C -0.214, M -0.444, G -0.184, A 0.084, K -0.816, Q -0.744, S -0.028, E -0.673, Y -0.295
S77: P -0.216, T 0.032
Y78: V 0.124
V71: Q -0.035, T -0.145, K 0.051, W -0.047, Y -0.239, L -0.093, A -0.006, G -0.677, S -0.147, M -0.065, R 0.02, N -0.391, E -0.368, P -0.401, F -0.215, C 0.094, I 0.263
L72: F -0.231, V -0.6, I 0.063, G -1.01, K -1, T -0.814, A -0.463, C -0.372, P -0.78, Q -0.949, M -0.099, R -1.12, W -1.1
A63: V 0.003, D 0.012, W 0.002, E -0.213, P -0.954, T -0.106, K -0.089, G 0.018, R -0.041, M 0.024, L 0.022, N 0.36, Y 0.085, F -0.123, H -0.161
T64: N -0.531, S -0.613, G -0.126, L -0.262, E -0.792, W -0.537, C -0.505, A -0.404, K -0.796, P -0.704, Q -0.1, R -0.807, I -0.793, M -0.02
Y67: G 0.017, T -0.006, D -0.027, R 0.079, K -0.045, C -0.058, L -0.125, N -0.014, W -0.153, V 0.064, Q 0.059, E 0.212, H 0.085, P -0.008, M -0.111, F -0.219, S 0.074, A -0.051
S74: M -0.049, V -0.567, W -0.561, E 0.271, G 0.026, K 0.133, T -0.076, Q -0.405, A 0.029, C -0.101, Y 0.134, P -0.417, F -0.404, H -0.066, D 0.014, L -0.28, R 0.042
N56: C -0.157, S -0.043, W -0.221, Q -0.043, R -0.226, F -0.515, L -0.129, K 0.125, D -0.033, E 0.178, H 0.12, P -0.155, I -0.247, M -0.002, Y -0.54, V -0.054, G 0.049, A -0.091
L66: S 0.013, P -0.015, W 0.009, A -0.021, E 0.016, H 0.008, F -0.574, C -0.039, I 0.085, K -0.038, Q -0.066, G -0.108, V 0.045, Y -0.036, T -0.089
R62: T -0.117, N -0.021, G -0.016, E -0.01, I -0.728, K 0.087, L 0.007, F -0.327, C -0.23, Q 0.071, S 0.017, W -0.325, D -0.4, A -0.159, H -0.073, V 0.066, P -0.213
K57: C -0.212, W -0.124, G -0.433, A -0.268, R -0.052, T -0.086, L -0.213, N -0.071, F -0.451, Q 0.043, D -0.312, H -0.52, S -0.319, Y -0.145, E -0.135, V -0.013, M 0.008

Variants of: B2
Test: as above
Settings: Homo sapiens

Abundance fitness, by site and new letter:
K1: G -0.054, M -0.214, W -0.336, A -0.193, Q -0.788, L -0.347, D 0.048, C -0.206, S -0.011, P -0.549, E -0.317, T -0.379
